Experimental findings from US20220002395A1 (FAPON BIOTECH, published 2022) are described below.

Where two headings read alike, the source gives them in different places.

Assay [1] concerns the target T1, Plasmodium falciparum histidine-rich protein II (HRP-II) (Plasmodium falciparum, UniProt P05227 22-332).
T1 construct: Coating antigen of all ELISAs; also called HRP-II protein; MA-HRPII Ag protein
T1 sequence (looked up): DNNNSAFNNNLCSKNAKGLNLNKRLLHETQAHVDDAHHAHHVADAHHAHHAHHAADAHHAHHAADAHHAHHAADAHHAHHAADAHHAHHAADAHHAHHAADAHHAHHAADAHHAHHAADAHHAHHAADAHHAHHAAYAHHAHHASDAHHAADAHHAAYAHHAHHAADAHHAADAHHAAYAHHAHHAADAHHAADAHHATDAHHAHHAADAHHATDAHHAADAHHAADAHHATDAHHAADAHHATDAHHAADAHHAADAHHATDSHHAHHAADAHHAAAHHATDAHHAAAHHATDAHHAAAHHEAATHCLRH
Briefly: indirect ELISA, coated MA-HRPII Ag 1 ug/ml, antibody 1000 ng/ml. (In an ELISA, binding on a coated surface is turned into a signal by an enzyme label.)

The target in assay [2] is T1, Plasmodium falciparum histidine-rich …. Briefly: indirect ELISA, coated MA-HRPII Ag 1 ug/ml, antibody 1.6 ng/ml.
Assay [3] shares this target. Description: indirect ELISA, coated MA-HRPII Ag 1 ug/ml, antibody 200 ng/ml.
The target is the same in assay [4]. Briefly: indirect ELISA, four antigen coating concentrations.
Method: The OD values corresponding to different antibody concentrations with different coating concentrations are obtained. Under the same coating concentration, the antibody concentrations are used as an abscissa, the OD values are used as an ordinate, and a logarithmic plot is made. […] An average value thereof is taken and a reciprocal thereof is calculated to get the affinity constant KD.
Assay [5] shares this target. Briefly: indirect ELISA, coated MA-HRPII Ag 1 ug/ml, antibody 40 ng/ml.
Assay [6] shares this target. Briefly: indirect ELISA, four antigen coating concentrations. The source holds these as a separate data set.
Assay [7] has the same target. Briefly: indirect ELISA, coated MA-HRPII Ag 1 ug/ml, antibody 8 ng/ml.
For assay [8] the target is unchanged. Description: indirect ELISA, coated MA-HRPII Ag 1 ug/ml, antibody 0.32 ng/ml.
For assay [9] the target is unchanged. Description: indirect ELISA, four antigen coating concentrations. This is another data set of the same source.
Method: The OD values corresponding to different antibody concentrations with different coating concentrations are obtained. Under the same coating concentration, the antibody concentrations are used as an abscissa, the 00 values are used as an ordinate, and a logarithmic plot is made. […] An average value thereof is taken and a reciprocal thereof is calculated to get the affinity constant KD.

B1: Anti-HRP-II 3R5 monoclonal antibody (recombinant, expressed in CHO cells; WT) (antibody, mouse IgG2b, kappa, V domains shown)
VH: EVQLQQSGPEVVKPGASVKISCKASGSTLTEYYMNWVKQSHGKGLEWIGDLNPINGGTPYQQKFRDKATLTVDKSSNTAYMELRSLTSEDSALYYCTRGAEEYWGQGTTLTVSS
VL: DVVLTQTPLSLSVTIGQPASISCKSSQSIIYSNGKIYINWFQQRPGQSPKRLMYQLSKIDPGIPDRFSGSGSETDFTLKISRVEAEDLGVYYCLQGTYSPNTFGGGTKLEIKR
notes: Mouse IgG; also called Anti-HRP-H3R5; CHO transient-transfected cell supernatant
In general, Kd refers to the concentration at which binding is half-saturated. Low values mean higher affinity, high ones lower affinity. Consider B1, for which the “OD value at 450 nm (ref 630 nm)” value in assay [1] is 2.34 OD; in assay [2], 0.053 OD; in assay [3], 1.97 OD; in assay [5], 0.402 OD; in assay [7], 0.122 OD; in [8] it was 0.058 OD. Besides, the Kd in [4] and in assay [6] was 0.633 nM throughout.

B2: Mutation 3 (antibody, mouse IgG2b, kappa, V domains shown)
VH: EVQLQQSGPEVVKPGASVKISCKASGSTLTQYYMNWVKQSHGKGLEWIGDLNPINGGTVYQQKFRDKATLTVDKSSNTAYMELRSLTSEDSALYYCTRGAEMYWGQGTTLTVSS
VL: DVVLTQTPLSLSVTIGQPASISCKSSQSIIYSNGKIYGNWFQQRPGQSPKRLMYQLSKFDPGIPDRFSGSGSETDFTLKISRVEAEDLGVYYCLQGTYSPMTFGGGTKLEIKR
notes: WT as framework
For the molecule B2, the “OD value at 450 nm (ref 630 nm)” value in assay [1] turned out to be 0.814 OD; in [3], 0.635 OD; in [5], 0.032 OD.

B3: Mutation 1 (antibody, mouse IgG2b, kappa, V domains shown)
VH: EVQLQQSGPEVVKPGASVKISCKASGSTLTDYYMNWVKQSHGKGLEWIGDLNPINGGTAYQQKFRDKATLTVDKSSNTAYMELRSLTSEDSALYYCTRGAEDYWGQGTTLTVSS
VL: DVVLTQTPLSLSVTIGQPASISCKSSQSIIYSNGKIYLNWFQQRPGQSPKRLMYQLSKLDPGIPDRFSGSGSETDFTLKISRVEAEDLGVYYCLQGTYSPQTFGGGTKLEIKR
notes: also called Variant 1
Consider B3, for which the “OD value at 450 nm (ref 630 nm)” value in assay [1] stood at 2.52 OD; in [2], 0.16 OD; in assay [3], 2.4 OD; in assay [5], 0.695 OD; in [7] it was 0.288 OD; in assay [8], 0.089 OD. For the same molecule, the dissociation constant Kd in assay [9] was 0.0521 nM.

B4: Mutation 2 (antibody, mouse IgG2b, kappa, V domains shown)
VH: EVQLQQSGPEVVKPGASVKISCKASGSTLTEYYMNWVKQSHGKGLEWIGDLNPINGGTPYQQKFRDKATLTVDKSSNTAYMELRSLTSEDSALYYCTRGAEEYWGQGTTLTVSS
VL: DVVLTQTPLSLSVTIGQPASISCKSSQSIIYSNGKIYLNWFQQRPGQSPKRLMYQLSKIDPGIPDRFSGSGSETDFTLKISRVEAEDLGVYYCLQGTYSPNTFGGGTKLEIKR
notes: WT as framework
As to B4, the “OD value at 450 nm (ref 630 nm)” value is 2.23 OD in assay [1]; 0.101 OD in assay [2]; 2.05 OD in assay [3]; 0.551 OD in assay [5]; 0.189 OD in [7]; 0.077 OD in [8].
